Measured values from US20200316120A1 (IMMPACT BIO, published 2020).

Target: HLA-A2 (recombinant, on Raji-HLA-A2 target cells) (human)
Test: cell-based or functional assay

B1: HLA-A2 iCAR (inhibitory chimeric antigen receptor; HLA-A2 scFv from hybridoma BB7.2 fused to PD-1 hinge, transmembrane and intracellular domains) (receptor)
chain: EQKLISEEDLQVQLQQSGPELVKPGASVKMSCKASGYTFTSYHIQWVKQRPGQGLEWIGWIYPGDGSTQYNEKFKGKTTLTADKSSSTAYMLLSSLTSEDSAIYFCAREGTYYAMDYWGQGTSVTVSSGGGGSGGGGSGGGGSDVLMTQTPLSLPVSLGDQVSISCRSSQSIVHSNGNTYLEWYLQKPGQSPKLLIYKVSNRFSGVPDRFSGSGSGTDFTLKISRVEAEDLGVYYCFQGSHVPRTFGGGTKLEIKTERRAEVPTAHPSPSPRPAGQFQTLVVGVVGGLLGSLVLLVWVLAVICSRAARGTIGARRTGQPLKEDPSAVPVFSVDYGELDFQWREKTPEPPVPCVPEQTEYATIVFPSGMGTSSPARRGSADGPRSAQPLRPEDGHCSWPL
inhibition of effector T cells expressing the two CARs at a 1:1 ratio (CD107a figure series): 50%
percent inhibition of CD107a expression on CD8 T cells; 100*(1-(CD107a with Raji-A2/CD107a with Raji)), aCAR to iCAR ratio 1:5: 84%
